The record followed here is US20230118517A1, “METHODS OF TREATING MULTIPLE MYELOMA” (Seagen Inc., priority 2020, published 2023).

The subject of series [1] is MM1R myeloma target cells. Nature of the series: PBMC-mediated MM1R target cell killing, first experiment (48 hrs, 3 μM pomalidomide). The note with it: combined with Pomalidomide, benchmarked against elotuzumab and WT-BCMA, N=2. Type of series: cell-based. As for the experimental part: (§1) Experiments were performed to test whether SEA-BCMA combines effectively with pomalidomide in vitro by combining PBMC effector cells with MM1R target cells treated with both pomalidomide and SEA-BCMA or antibody controls. The first experiment (FIG. 12A) benchmarks against MM standard of care elotuzumab and nonfucosylated parent BCMA antibody. The second experiment (FIG. 12B) benchmarks against MM standard of care daratumumab. MM1R target cells express 15,000 copies of BCMA, 12,000 copies of CS1 (elotuzumab target), and 36,000 copies of CD38 (daratumumab target).
In the first experiment (FIG. 12A), normal donor PBMCs of the FcγRIII V/F genotype were mixed with CFSE (Invitrogen cat #V12883) labeled MM1R myeloma target cells at an effector-to-target cell ratio of 10:1. The mixture was treated with a dose range of the following antibodies: SEA-BCMA, elotuzumab, WT-BCMA (fucosylated parent Ab), or non-binding hIgG1k antibody control (Sigma cat #15154) with or without 3 μM pomalidomide (APEx Bio, cat #A4211). After 48 hrs, the % live MM1R cells were then determined using the viability dye 7-AAD (BD Biosciences, cat #559925) by flow cytometry.

The next series has as its system NF-κB p65. Nature of the series: NF-κB p65 activity ELISA on nuclear extract. Type of series: cell-based. The conditions noted are these: NCI-H929, 20 μg/mL SEA-BCMA, 0.2 μM Nirogacestat. As for the experimental part: The secondary mechanism of action of SEA-BCMA is to block BCMA proliferative cell signaling. Increased BCMA from GSI treatment is expected to induce increased BCMA signaling. Therefore, the block of this enhanced signaling by SEA-BCMA was tested. BCMA-expressing NCI-H929 cells were serum-starved with and without 0.2 μM Nirogacestat (purchased from SelleckChem) for 16 hrs. Cells were then bound with and without 20 μg/mL SEA-BCMA and incubated with and without 1 μg/ml recombinant human APRIL (R&D Systems) for 20 minutes at 37° C. in the presence or absence of 0.2 μM Nirogacestat. 1 μg of nuclear extract was assayed in duplicate for NF-κB p65 activity by ELISA (TransAM NFκB Chemi p65, Active Motif).
For orientation: An ELISA detects its analyte on a solid surface through an enzyme-linked reagent.

The nature of series [2]: Pharmacokinetic analysis of SEA-BCMA serum concentration in patients.
The subject of another series is Molp-8 MM target cells. Kind of series: ADCC 51Cr release assay with NK effector cells. It is filed as cell-based. The note with it: Molp-8, with vs without 0.2 μM Nirogacestat, NK cells 10:1, 4 h. The procedure: Whether the enhanced FcγRIII signaling translated to increased lysis of MM target cells by SEA-BCMA was determined. Molp-8 MM target cells were incubated with and without 0.2 μM Nirogacestat (purchased from SelleckChem) for 24 hrs. Cells were then Na2 [^51Cr] O4 labeled and added to titrations of SEA-BCMA, or isotype antibody control. Effector cells, NK cells enriched from normal donor PBMC, were added at an effector-to-target cell ratio of 10:1 (50,000:5000). Donor NK cells were of the high affinity FcγRIII V/V genotype. The combination of antibodies, NK cells and target cells were incubated for 4 h at 37° C. with and without Nirogacestat. The radioactivity released into the culture supernatant of lysed target cells was then measured and the percent specific cell lysis calculated. […] This is the primary of mechanism of action of SEA-BCMA and translates to specific enhanced anti-MM lysis. It is expected that this will translate to improvements in anti-MM activity in the clinic when SEA-BCMA is combined with GSIs.

Series [3] relates to MM1R myeloma target cells. Kind of series: PBMC-mediated MM1R target cell killing, second experiment (PBMC pretreated 5 days, 0.5 μM pomalidomide). Type of series: cell-based. The conditions noted are these: combined with Pomalidomide, benchmarked against daratumumab, N=2. As for the experimental part: as §1
In the second experiment (FIG. 12B), normal donor PBMCs of the FcγRIII V/F genotype were treated with or without 0.5 μM pomalidomide (APEx Bio, cat #A4211) for 5 days. The resulting PBMCs were then washed and mixed with CFSE (Invitrogen cat #V12883) labeled MM1R myeloma target cells at an effector-to-target cell ratio of 10:1. The mixture was then treated with a dose range of the following antibodies: SEA-BCMA, daratumumab, or non-binding hIgG1k antibody control (Sigma cat #15154) with or without 0.5 μM pomalidomide (APEx Bio, cat #A4211) and incubated overnight. Percentage live MM1R cells were then determined using the viability dye 7-AAD (BD Biosciences, cat #559925) by flow cytometry.

The next series concerns MOLP-8 luciferase cells. Nature of the series: Disseminated MM mouse tumor xenograft (luminescence). Type of series: in vivo, SCID mice. The conditions noted are these: SEA-BCMA 3 mg/kg once IP combined with daratumumab 1 mg/kg weekly 5x, N=5. The procedure: Experiments were performed to test whether SEA-BCMA can combine effectively with daratumumab in a disseminated MM mouse tumor xenograft. MOLP-8 luciferase cells were injected IV into SCID animals and allowed to home to the bone marrow. Molp-8 cells express 2000 copies of BCMA and 323,000 copies of CD38 (daratumumab target). When sufficient luminescence was observed, animals were dosed once IP with SEA-BCMA, or SEA non targeted control at 3 mg/kg. Daratumumab was dosed weekly 5× at 1 mg/kg. Median luminescence plotted, N=5. The combination of SEA-BCMA and daratumumab yielded complete remissions in 4 of 5 animals.

Setting [4] is: among 20 total patients treated.

Where two headings read alike, the source gives them in different places.

In the case of “SEA-BCMA: non-fucosylated monoclonal anti-BCMA antibody having heavy chain SEQ ID NO: 13 and light chain SEQ ID NO: 15”, the “MM1R target cell killing” value in series [1] and in series [3] was “greater MM1R target cell killing” in each case. Further, the “block of Nirogacestat-increased NF-κB signaling” value in the series on NF-κB p65 is recorded as “partially blocked”. Further, the safety result runs as follows: (1600 mg per dose once every 2 weeks) “found to be safe”; (combination with dexamethasone, SEA-BCMA Day 1 and 15, dexamethasone Day 1, 8, 15, 22 of 28-day cycle) “found to be safe”; (intensive dosing: 1600 mg q1wk for 8 doses, then once every two weeks) “intensive dosing was safe”. Besides, the safety profile entry (20 patients, 100-1600 mg) was “well-tolerated with no severe adverse effects”. Moreover, for the setting “Patient A, 1600 mg every two weeks, second cycle”, the adverse event result was “Grade 2 maculopapular rash”. Moreover, under setting [4], the “dose-limiting toxicity (DLT) (Grade 3 infusion-related reactions)” value stood at 1 case. For the same substance, the “total serious infusion-related reactions” value under setting [4] is reported as 2. In addition, under “dose escalation cohort”, the “delayed-onset infusion-related reactions (IRRs)” value is “no instances of delayed-onset infusion-related reactions”. Further, the “maximum tolerated dose (MTD)” value (human, in vivo) is given as “completed without exceeding MTD”. Further, the safety and tolerability entry (patient, 200 mg escalated to 1600 mg every two weeks, cycles 1-10) is “tolerated the therapy well without any adverse effects related to SEA-BCMA”. For the same substance, the “time at which PK reaches steady state” value in series [2] (Q2W dosing) is “steady state at cycle 3”. Further, the “accumulation at steady state” value in series [2] (after Q2W dosing) is recorded as “approximately 70%”. The “ADCC (specific cell lysis)” value in the series on Molp-8 MM target cells is “Increased ADCC”. For the same substance, in the series with MOLP-8 luciferase cells, the complete remissions is on record as 4 of 5.
